B1: MMI-0300 (peptide)
peptide: FAKLAARLYRKALARQLGVAA
B2: MMI-0400 (peptide)
peptide: KAFAKLAARLYRKALARQLGVAA

What was measured:
Assay in all cases: cell-based or functional assay
PKCε(h) = biological target: T1, PKCε(h) (human, UniProt Q02156 1-737)
T1 sequence (looked up): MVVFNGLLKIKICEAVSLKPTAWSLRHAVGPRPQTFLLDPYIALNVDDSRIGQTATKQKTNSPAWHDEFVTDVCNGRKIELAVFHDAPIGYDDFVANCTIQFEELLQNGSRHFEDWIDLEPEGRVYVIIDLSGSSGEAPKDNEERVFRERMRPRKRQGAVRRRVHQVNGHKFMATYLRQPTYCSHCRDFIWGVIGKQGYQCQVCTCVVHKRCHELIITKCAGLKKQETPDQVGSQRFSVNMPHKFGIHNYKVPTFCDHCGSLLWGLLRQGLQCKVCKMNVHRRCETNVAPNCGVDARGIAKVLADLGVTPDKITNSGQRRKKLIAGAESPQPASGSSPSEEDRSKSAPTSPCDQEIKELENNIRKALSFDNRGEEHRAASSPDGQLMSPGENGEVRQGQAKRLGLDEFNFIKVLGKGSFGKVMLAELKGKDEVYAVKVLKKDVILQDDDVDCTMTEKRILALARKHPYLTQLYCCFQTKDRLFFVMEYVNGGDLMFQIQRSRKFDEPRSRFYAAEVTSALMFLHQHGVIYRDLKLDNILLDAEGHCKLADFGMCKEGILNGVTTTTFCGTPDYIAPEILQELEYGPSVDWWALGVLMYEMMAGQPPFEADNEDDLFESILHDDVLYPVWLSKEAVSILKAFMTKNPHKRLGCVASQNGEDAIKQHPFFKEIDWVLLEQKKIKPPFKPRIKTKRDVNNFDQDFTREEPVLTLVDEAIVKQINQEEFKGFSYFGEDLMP

CHK2(R145W)(h) = CHK2(R145W)(h) (human, UniProt O96017 5-543, limits assumed)
CHK2(R145W)(h), sequence (O96017 5-543 R145W limits assumed): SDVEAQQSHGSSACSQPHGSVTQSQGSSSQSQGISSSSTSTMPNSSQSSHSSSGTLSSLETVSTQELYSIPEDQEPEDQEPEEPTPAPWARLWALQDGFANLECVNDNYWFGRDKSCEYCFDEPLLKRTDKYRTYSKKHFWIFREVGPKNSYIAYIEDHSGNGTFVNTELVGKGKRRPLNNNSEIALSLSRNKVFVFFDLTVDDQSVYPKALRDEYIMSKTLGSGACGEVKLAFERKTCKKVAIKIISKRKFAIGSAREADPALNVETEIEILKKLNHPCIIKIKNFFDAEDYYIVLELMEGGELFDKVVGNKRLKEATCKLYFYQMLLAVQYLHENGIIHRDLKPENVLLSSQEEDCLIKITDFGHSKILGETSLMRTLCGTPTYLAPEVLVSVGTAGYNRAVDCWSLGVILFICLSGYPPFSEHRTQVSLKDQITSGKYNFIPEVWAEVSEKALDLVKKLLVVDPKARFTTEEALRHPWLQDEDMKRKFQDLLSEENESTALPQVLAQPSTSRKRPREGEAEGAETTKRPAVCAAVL

Fes(h) = Fes(h) (human, UniProt P07332 1-822, limits assumed)
Fes(h), sequence (P07332 whole entry): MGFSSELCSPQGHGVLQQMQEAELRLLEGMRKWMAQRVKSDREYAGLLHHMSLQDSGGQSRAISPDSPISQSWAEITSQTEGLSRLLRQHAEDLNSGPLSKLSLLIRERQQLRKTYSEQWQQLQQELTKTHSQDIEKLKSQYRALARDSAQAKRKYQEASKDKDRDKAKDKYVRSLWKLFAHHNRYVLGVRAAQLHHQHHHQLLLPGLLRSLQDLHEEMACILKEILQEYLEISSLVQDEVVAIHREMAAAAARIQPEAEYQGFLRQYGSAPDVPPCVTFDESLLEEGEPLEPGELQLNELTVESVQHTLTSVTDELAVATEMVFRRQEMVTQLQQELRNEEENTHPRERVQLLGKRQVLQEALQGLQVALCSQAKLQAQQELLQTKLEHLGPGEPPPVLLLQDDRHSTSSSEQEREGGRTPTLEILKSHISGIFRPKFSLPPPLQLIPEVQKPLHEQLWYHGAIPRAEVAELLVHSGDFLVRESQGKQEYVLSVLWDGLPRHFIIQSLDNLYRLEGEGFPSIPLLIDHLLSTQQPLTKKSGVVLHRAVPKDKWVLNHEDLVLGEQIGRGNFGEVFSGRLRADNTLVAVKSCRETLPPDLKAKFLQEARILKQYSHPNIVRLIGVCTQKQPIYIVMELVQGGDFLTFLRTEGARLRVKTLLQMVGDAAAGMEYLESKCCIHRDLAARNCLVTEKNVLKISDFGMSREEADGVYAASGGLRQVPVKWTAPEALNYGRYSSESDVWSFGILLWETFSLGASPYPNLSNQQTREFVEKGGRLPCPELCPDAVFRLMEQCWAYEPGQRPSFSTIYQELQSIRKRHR

PAK6(h) = PAK6(h) (human, UniProt Q9NQU5 1-681, limits assumed)
PAK6(h), sequence (Q9NQU5 whole entry): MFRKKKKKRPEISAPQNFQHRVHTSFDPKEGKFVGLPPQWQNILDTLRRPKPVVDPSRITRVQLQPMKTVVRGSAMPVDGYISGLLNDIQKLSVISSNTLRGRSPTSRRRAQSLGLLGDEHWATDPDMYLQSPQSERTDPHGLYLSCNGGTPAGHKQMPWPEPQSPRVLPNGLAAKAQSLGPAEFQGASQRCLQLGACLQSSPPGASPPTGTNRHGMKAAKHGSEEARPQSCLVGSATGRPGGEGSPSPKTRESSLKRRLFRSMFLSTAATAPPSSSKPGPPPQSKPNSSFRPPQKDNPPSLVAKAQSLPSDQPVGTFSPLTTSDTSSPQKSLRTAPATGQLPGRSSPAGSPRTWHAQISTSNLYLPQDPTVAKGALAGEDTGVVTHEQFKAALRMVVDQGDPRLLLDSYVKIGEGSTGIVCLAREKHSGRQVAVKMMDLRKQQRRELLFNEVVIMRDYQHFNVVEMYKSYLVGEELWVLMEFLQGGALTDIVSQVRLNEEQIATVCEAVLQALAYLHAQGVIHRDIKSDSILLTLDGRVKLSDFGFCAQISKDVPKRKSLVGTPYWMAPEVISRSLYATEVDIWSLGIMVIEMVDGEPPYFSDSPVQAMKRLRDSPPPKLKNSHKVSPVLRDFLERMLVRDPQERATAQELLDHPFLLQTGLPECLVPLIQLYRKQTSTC

ARK5(h) = biological target: T2, ARK5(h) (human, UniProt O60285 1-661, limits assumed)
T2 sequence (looked up): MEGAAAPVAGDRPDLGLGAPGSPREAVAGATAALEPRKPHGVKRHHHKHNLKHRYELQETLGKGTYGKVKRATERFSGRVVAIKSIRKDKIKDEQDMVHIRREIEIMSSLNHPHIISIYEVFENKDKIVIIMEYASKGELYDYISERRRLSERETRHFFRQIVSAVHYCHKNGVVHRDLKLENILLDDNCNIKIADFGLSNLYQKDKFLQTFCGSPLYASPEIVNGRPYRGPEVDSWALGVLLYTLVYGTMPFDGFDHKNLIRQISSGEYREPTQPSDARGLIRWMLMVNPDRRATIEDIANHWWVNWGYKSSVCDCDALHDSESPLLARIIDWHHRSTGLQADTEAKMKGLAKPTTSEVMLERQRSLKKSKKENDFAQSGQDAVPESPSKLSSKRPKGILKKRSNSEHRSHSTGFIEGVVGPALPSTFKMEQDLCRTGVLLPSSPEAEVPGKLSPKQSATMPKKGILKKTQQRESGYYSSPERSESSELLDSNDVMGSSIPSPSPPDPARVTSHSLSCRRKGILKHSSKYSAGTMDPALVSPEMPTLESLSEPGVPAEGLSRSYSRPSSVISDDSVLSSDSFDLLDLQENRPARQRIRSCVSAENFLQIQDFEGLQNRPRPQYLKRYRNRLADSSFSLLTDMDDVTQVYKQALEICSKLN

Met(Y1248D)(h) = Met(Y1248D)(h) (human, UniProt P08581-2 974-1408, limits assumed)
ROCK-II(h) = ROCK-II(h) (human, UniProt O75116 11-552)
IGF-1R(h), activated = IGF-1R(h), activated (human, UniProt P08069 959-1367, limits assumed)
IGF-1R(h), activated, sequence (P08069 959-1367 limits assumed): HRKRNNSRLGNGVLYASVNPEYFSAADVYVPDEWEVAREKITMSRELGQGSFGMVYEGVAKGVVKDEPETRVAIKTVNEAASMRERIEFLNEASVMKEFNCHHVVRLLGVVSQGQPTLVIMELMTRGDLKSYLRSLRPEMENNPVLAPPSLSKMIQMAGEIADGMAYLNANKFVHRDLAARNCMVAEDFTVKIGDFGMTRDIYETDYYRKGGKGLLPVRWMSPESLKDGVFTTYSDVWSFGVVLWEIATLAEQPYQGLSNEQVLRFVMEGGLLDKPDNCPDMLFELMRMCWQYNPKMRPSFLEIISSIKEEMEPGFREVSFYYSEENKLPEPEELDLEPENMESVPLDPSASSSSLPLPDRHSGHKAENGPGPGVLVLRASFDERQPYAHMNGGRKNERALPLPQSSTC

IR(h) = IR(h) (human, UniProt P06213 1005-1310, limits assumed)
IR(h), sequence (P06213 1005-1310 limits assumed): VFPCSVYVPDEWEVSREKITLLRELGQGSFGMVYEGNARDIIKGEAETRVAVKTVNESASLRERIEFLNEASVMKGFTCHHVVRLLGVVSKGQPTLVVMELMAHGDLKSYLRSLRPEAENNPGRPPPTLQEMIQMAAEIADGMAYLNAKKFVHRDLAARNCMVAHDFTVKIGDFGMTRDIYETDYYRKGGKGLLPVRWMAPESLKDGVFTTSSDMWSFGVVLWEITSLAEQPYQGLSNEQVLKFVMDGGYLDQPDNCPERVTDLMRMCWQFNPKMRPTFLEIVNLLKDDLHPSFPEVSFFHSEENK

EphA7(h) = EphA7(h) (human, UniProt Q15375 577-998, limits assumed)
EphA7(h), sequence (Q15375 577-998 limits assumed): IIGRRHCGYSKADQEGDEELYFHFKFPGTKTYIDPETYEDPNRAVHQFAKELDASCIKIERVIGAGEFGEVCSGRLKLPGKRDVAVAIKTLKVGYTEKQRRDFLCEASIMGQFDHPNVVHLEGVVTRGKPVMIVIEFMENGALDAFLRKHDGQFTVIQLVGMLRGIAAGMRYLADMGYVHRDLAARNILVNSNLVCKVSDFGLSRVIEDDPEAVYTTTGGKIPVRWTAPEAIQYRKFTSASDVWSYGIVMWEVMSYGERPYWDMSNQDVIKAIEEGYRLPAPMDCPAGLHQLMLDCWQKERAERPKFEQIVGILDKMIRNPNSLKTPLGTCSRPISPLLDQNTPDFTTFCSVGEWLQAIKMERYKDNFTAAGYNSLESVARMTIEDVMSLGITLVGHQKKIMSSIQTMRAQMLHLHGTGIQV

Syk(h) = Syk(h) (human, UniProt P43405 1-635, limits assumed)
Ab1(Y253F)(h) = Ab1(Y253F)(h) (human, UniProt P00519 27-1130, limits assumed)
Ab1(Y253F)(h), sequence (P00519 27-1130 Y253F limits assumed): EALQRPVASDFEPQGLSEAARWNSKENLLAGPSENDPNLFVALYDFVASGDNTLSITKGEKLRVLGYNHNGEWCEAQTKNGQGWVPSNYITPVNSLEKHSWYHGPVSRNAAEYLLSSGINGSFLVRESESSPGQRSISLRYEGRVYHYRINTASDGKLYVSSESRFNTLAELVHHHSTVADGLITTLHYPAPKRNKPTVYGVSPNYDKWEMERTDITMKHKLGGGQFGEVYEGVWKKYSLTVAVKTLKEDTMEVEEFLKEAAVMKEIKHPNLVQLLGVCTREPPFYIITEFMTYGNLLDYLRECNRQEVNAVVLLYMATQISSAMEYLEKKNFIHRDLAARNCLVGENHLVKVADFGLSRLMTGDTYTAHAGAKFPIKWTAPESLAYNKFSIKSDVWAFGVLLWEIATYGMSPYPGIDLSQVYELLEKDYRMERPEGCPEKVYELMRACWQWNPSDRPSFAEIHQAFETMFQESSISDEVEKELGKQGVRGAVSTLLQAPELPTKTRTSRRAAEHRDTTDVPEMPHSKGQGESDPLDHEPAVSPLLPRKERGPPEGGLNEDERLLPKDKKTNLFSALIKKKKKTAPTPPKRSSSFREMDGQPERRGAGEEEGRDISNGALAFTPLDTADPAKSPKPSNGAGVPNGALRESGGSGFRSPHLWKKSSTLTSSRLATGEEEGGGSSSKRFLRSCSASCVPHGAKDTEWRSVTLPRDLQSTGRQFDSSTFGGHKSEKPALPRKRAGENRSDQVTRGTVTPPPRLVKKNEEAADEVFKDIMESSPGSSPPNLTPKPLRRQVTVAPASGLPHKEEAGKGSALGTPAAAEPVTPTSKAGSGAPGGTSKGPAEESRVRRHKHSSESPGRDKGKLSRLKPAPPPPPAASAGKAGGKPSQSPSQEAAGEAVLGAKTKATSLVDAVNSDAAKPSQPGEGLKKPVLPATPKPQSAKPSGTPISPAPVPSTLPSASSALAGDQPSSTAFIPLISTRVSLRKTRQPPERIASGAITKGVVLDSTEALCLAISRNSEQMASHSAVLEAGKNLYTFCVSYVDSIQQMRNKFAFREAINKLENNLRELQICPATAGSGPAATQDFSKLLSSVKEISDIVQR

PKCδ(h) = PKCδ(h) (human, UniProt Q05655 1-676)
MLK1(h) = MLK1(h) (human, UniProt P80192 132-413, limits assumed)
MLK1(h), sequence (P80192 132-413 limits assumed): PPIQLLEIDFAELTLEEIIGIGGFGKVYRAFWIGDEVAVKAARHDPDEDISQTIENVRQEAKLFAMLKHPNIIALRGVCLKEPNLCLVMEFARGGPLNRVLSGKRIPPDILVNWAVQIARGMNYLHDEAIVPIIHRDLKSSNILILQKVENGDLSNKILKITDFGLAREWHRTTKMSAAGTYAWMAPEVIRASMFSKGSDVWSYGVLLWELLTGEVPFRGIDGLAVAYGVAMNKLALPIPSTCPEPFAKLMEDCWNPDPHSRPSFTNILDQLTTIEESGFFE

IKKα(h) = biological target: T3, IKKα(h) (human, UniProt O15111 1-745, limits assumed)
T3 sequence (looked up): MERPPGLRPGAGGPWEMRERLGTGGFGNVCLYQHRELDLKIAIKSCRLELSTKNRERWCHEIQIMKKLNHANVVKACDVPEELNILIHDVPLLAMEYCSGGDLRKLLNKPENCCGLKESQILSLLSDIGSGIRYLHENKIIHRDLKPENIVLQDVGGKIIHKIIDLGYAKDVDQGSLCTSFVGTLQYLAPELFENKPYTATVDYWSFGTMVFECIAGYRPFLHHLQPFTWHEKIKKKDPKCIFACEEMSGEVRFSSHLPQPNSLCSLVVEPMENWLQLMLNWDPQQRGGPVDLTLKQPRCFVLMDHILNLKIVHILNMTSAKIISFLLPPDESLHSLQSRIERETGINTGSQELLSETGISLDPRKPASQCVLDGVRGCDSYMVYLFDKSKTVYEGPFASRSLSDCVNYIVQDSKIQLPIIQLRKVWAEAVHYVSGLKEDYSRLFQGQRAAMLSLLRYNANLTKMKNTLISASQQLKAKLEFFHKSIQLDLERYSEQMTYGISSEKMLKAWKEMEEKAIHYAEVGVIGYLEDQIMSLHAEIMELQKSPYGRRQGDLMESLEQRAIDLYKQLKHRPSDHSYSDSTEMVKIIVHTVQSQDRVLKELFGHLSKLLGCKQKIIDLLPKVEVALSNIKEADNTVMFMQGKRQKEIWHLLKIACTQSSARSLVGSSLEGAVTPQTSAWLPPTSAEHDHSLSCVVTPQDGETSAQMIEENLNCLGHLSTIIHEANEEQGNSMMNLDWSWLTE
Further: test concentration or dose not given here.

Binder	% activity (PKCε(h)) [%]	% activity (CHK2(R145W)(h)) [%]	% activity (Fes(h)) [%]	% activity (PAK6(h)) [%]	% activity (ARK5(h)) [%]	% activity (Met(Y1248D)(h)) [%]	% activity (ROCK-II(h)) [%]	% activity (IGF-1R(h), activated) [%]	% activity (IR(h)) [%]	% activity (EphA7(h)) [%]	% activity (Syk(h)) [%]	% activity (Ab1(Y253F)(h)) [%]	% activity (PKCδ(h)) [%]	% activity (MLK1(h)) [%]	% activity (IKKα(h)) [%]
B1	79	33	20	104	78	102	74	80	96	159	24	86	101	40	93
B2	59	31	16	100	69	31	77	77	85	222	9	78	90	33	87
